Laboratory results from patent publication US20030013150A1.

Target: plasminogen
Test: cell-based or functional assay

## Bacteriophages which harbored K2S on gpIII (K2S-?) (from UniProt P00750 209-562)
  fibrinogen-dependent enzymatic activity (amidolytic assay, plasminogen and S-2251): < 0.25 IU/ml
